± gives the standard error. Variants at the floor of the assay were thinned out.
B1: glmS ribozyme (parent)
chain: AUAAAAGCGCCAGAACUACAGAAAUGUAGUUGACGAGGAGGAGGUUUAUCGAAUUUUCGGCGGAUGCCUCCAAA

Variants of: B1
Experiment: self-cleavage kobs at 640 uM GlcN6P; higher = faster cleavage; RNA array
Conditions: with glucosamine-6-phosphate
Procedure, shortened: (§1)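 E. coli RNA polymerase transcribed barcoded ribozyme variants in situ on sequenced MiSeq chips, which were tracked via a hybridised Cy3 probe at 37 °C. Tiles were imaged over ~14 h after glucosamine-6-phosphate (40 μM to 10 mM) in HEPES/KCl/Mg(OAc)2 buffer was flowed in. Normalised per-tile medians were fit to one- or two-exponential decays for kobs, and kcat and KM came from weighted Michaelis–Menten fits.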

| Variant | self-cleavage kobs at 640 uM GlcN6P |
| --- | --- |
| AUAAAAGCGCCAGAACUACAGAAAUGUAGUUGACGAGGAGGAGGUAUAUCGAAUCUUCGGCGGAUGCCUCCAAA | 0.00095 ± 0.00025 s⁻¹ |
| AUAAAAUAGCCAGAACUACAGAAAUGUAGGUGACGAGGAGGAGCUUUAUCGAAUUUUCGGCGGAUGCCUCCAAA | < 1e-05 s⁻¹ |
| AUAAAAGCGCCAGAACUACAGAAAUGUAGUUGACGAGGAGGAGGUUUAUCGCAUUUUGGGCGGAUGCCUCCAAA | < 1e-05 s⁻¹ |
| AUAAAAGCGCCAGAACUACAGAAAUGUACGUGACGAGGAGGAGGUUUAUCGAAUUUUCGGCGGAUGCCUUCAAA | 0.000861 ± 0.00017 s⁻¹ |
| AUAAAAGCGCCAGAACUACAGAAAUGUACUUGACGAGGGGGAGGUAUAUCGAAUUUUCGGCGGAGGCCUCCAAA | 0.000174 ± 6.2e-05 s⁻¹ |
| AUAAAAGCGCCAGAACUACAGAAAUGUAAUUUACGAGGAUGAGUUUUAUCGAAUUUUCGGCGGAUGCCUCCAAA | < 1e-05 s⁻¹ |
| AUAAAAGCGCCAAAACUACAGAAAUGUAGUUGACGAGGAGGAGGAUUAACGAAUUUUCGGCGGAUGCCUCCAAA | < 1e-05 s⁻¹ |
| AUAAAAGUGCCAGAACUACAGAAAUGUAGUUGACGAUGAGGAGGUUUAUCGAAUUUUCGGCGGAUGCCUCGAAA | 0.000584 ± 0.00027 s⁻¹ |
| AUAAAAGCACCAGAACUACAGAAAUGUAGUUGACGAGGAGGAGGUUUUUAGAAUUUUCGGCGGAUGCCUCCAAA | < 1e-05 s⁻¹ |
| AUAAAAGCGCCAGAUCUACAGAAAUGUAGUUGACGAGGAGGAGGUGUAUCGAUUUUUCGGCGGAUGUCUCCAAA | 6.64e-05 ± 1.4e-05 s⁻¹ |
| AUAAAGGCGCCAGAACUACAGAAAUGUAGUUGACUAGGAGGAGGUUUAUUGAAUUUUCGGCGGAUGCCUCCAAA | < 1e-05 s⁻¹ |
| AUAAAAGAGCCAGAACUACAGAAAUGUAGUUGACGAGGAGGAGGCUUAUCGAAUUUUCGGCGGAUGUCUCCAAA | < 1e-05 s⁻¹ |
| AUAAAAGCGCCAGAACUACAGAAAUGUAGCUGACGAUGAGGAGCUUUAUCGAAUUUUUGGCGGAUGUCUCCAAA | < 1e-05 s⁻¹ |
| AUAAAAGCGCCAGAACUACAGAAAUGUAGUGGACCAGGAGGAGGUUUAUCUAAUUUUCGGCGGAUGCCUCCAAA | < 1e-05 s⁻¹ |
| AUAAAAGCGCCCGGACUACAGAAAUGUAGUUGAGGAGUAGGAGGUUUAGCGAAUUUUCGGCGGGUGCCUCCAAA | < 1e-05 s⁻¹ |
| AUAAAAGCGCCAGAACUACAGAAAUGUAUUUGACGAGGAGGAGGGUUAUCGAAUUUUCGGCGGACGCCUCCAAA | < 1e-05 s⁻¹ |
| AUAAAAGCGCCAGAAAUACAGAAAUGUAGUUGACGAGGAGGAGGUUUAUCUAAUUUUCGGCGGAUGCCGCCAAA | 9.84e-05 ± 4.1e-05 s⁻¹ |
| AUAAAAGCCGCAGGACUACAGAAAUGUAGUUGACGAGGAGUAGGUUUAUCGAAUUUUCGGCGGCUGCCUCCAAA | < 1e-05 s⁻¹ |
| AUAAAAGCGCCAGAACUACAGAAAUGUAGUUGACGAGGAGGAGGUUUAUCGAAUUUUCGGGGGAUGCCUGGAAA | 0.000223 ± 8.8e-05 s⁻¹ |
| AUAAAAGCGCCAGAACUACAGAAAUGUAGUUGCCGAGGAGGAGGUUUAUCGAAUUUUCAGCGGAUGUCUCCAAA | < 1e-05 s⁻¹ |
| AUAAAUGCGCCAGAACUACAGAAAUGUAGUUGACGAUGAGGAGGUUUCUCGAAUUUUCGGCGGAUGGCUCCAAA | < 1e-05 s⁻¹ |
| AUAAAAGCGCCAGAUCUACAGAAAUGUCGUUGUCGAGGAGGAGGUUUAUCGAAUUUUCGGCGGAUGCCUCCAAA | < 1e-05 s⁻¹ |
| AUAAAAGCGCCAGAACUACAGAAAUGUAGUUGACGAGGAGUAGGUGUCCCGAAUUUUCGGCGGAUGCCUCCAAA | < 1e-05 s⁻¹ |
| AUAAAAGCGCCAGAACUACAGAAAUGUAGUUGACGAGGAGGAGGUAUAUCGAAUUUUCGGCGGAAGCCUCCAAA | 0.000776 ± 0.0002 s⁻¹ |
| AUAAAAGCGACAGAACUACAGAAAUGUAGUUGACGAGGUGGAGGUUUAUCGGAUUUUCGGCGGAUGCCUCCAAA | < 1e-05 s⁻¹ |

Variants of: B1
Experiment: self-cleavage kobs at 2500 uM GlcN6P; higher = faster cleavage; RNA array
Conditions: with glucosamine-6-phosphate
Procedure, shortened: as §1

| Variant | self-cleavage kobs at 2500 uM GlcN6P |
| --- | --- |
| AUAAAAGCGCCAGAACUACAGAAAUGUAGUUGACGAGGAGGAGGUAUAUCGAAUCUUCGGCGGAUGCCUCCAAA | 0.00269 ± 0.00043 s⁻¹ |
| AUAAAAGCGCCAGAACUACAGAAAUGUACUUGACGAGGGGGAGGUAUAUCGAAUUUUCGGCGGAGGCCUCCAAA | 0.000622 ± 0.00019 s⁻¹ |
| AUAAAAGCGCCAGAACUACAGAAAUGUAAUUUACGAGGAUGAGUUUUAUCGAAUUUUCGGCGGAUGCCUCCAAA | < 1e-05 s⁻¹ |
| AUAAAAGCGCCAAAACUACAGAAAUGUAGUUGACGAGGAGGAGGAUUAACGAAUUUUCGGCGGAUGCCUCCAAA | < 1e-05 s⁻¹ |
| AUAAAAGCGCCCGGACUACAGAAAUGUAGUUGAGGAGUAGGAGGUUUAGCGAAUUUUCGGCGGGUGCCUCCAAA | < 1e-05 s⁻¹ |
| AUAAAAGCGCCAGAACUACAGAAAUGUAUUUGACGAGGAGGAGGGUUAUCGAAUUUUCGGCGGACGCCUCCAAA | < 1e-05 s⁻¹ |
| AUAAAAGCGCCAGAAAUACAGAAAUGUAGUUGACGAGGAGGAGGUUUAUCUAAUUUUCGGCGGAUGCCGCCAAA | 0.000199 ± 9.6e-05 s⁻¹ |
| AUAAAAGCCGCAGGACUACAGAAAUGUAGUUGACGAGGAGUAGGUUUAUCGAAUUUUCGGCGGCUGCCUCCAAA | < 1e-05 s⁻¹ |
| AUAAAAGCGCCAGAACUACAGAAAUGUAGUUGACGAGGAGGAGGUUUAUCGAAUUUUCGGGGGAUGCCUGGAAA | 8.65e-05 ± 2.4e-05 s⁻¹ |
| AUAAAUGCGCCAGAACUACAGAAAUGUAGUUGACGAUGAGGAGGUUUCUCGAAUUUUCGGCGGAUGGCUCCAAA | < 1e-05 s⁻¹ |
| AUAAAAGCGACAGAACUACAGAAAUGUAGUUGACGAGGUGGAGGUUUAUCGGAUUUUCGGCGGAUGCCUCCAAA | < 1e-05 s⁻¹ |

Variants of: B1
Experiment: self-cleavage kobs at 10000 uM GlcN6P; higher = faster cleavage; RNA array
Conditions: with glucosamine-6-phosphate
Procedure, shortened: as §1

| Variant | self-cleavage kobs at 10000 uM GlcN6P |
| --- | --- |
| AUAAAAGCGCCAGAACUACAGAAAUGUAGUUGACGAGGAGGAGGUAUAUCGAAUCUUCGGCGGAUGCCUCCAAA | 0.0029 ± 0.00062 s⁻¹ |
| AUAAAAGCGCCAGAACUACAGAAAUGUAGUUGACGAGGAGGAGGUUUAUCGCAUUUUGGGCGGAUGCCUCCAAA | < 1e-05 s⁻¹ |
| AUAAAAGCGACAGAACUACAGAAAUGUAGUUGACGAGGUGGAGGUUUAUCGGAUUUUCGGCGGAUGCCUCCAAA | < 1e-05 s⁻¹ |

Source: the supplement of paper PMC7125110
